Experimental data published in publication PMC9489729, “The AAA+ ATPase RavA and its binding partner ViaA modulate E. coli aminoglycoside sensitivity through interaction with the inner membrane” (Nature Communications, 2022).
One block for each binder: values may come before it.

Key:
[1] = biological target: T1, C-terminally His-tagged RavA (E. coli, UniProt P31473 1-498); assay: BLI; biotinylated ViaA construct immobilised on streptavidin biosensors, RavA in solution with 1 mM ADP (pre-incubated 10 min); HBS kinetics buffer, 293 K; 1:1 model; settings: both partners purified
T1 construct: RavA, MoxR AAA+ ATPase, E. coli K-12 MG1655; It cites earlier work for RavA being a hexamer with ADP or ATP and partly monomeric without nucleotide; also called apo-RavA; not shown: His tag, C-terminal, kept
T1 sequence (P31473 whole entry): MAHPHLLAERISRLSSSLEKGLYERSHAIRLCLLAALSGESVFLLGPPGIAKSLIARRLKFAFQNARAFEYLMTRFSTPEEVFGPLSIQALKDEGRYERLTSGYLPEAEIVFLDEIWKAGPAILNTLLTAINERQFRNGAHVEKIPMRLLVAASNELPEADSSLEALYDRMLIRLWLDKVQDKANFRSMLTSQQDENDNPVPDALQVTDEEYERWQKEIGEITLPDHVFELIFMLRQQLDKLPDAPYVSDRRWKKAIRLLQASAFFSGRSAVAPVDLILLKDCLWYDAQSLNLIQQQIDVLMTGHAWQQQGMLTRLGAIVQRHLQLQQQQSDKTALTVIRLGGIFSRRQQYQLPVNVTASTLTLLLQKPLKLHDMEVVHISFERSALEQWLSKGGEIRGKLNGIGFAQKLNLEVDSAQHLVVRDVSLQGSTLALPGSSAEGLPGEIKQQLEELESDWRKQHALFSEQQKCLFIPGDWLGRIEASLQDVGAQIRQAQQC

[2] = biological target: T1, C-terminally His-tagged RavA; assay: BLI; biotinylated ViaA construct immobilised on streptavidin biosensors, ligand in solution, no nucleotide added; HBS kinetics buffer (25 mM HEPES pH 7.5, 300 mM NaCl, 10 mM MgCl2, 10 % glycerol, 0.1% BSA, 0.02% Tween-20), 293 K, Octet RED96; 1:1 model; settings: both partners purified
[3] = biological target: the molecule itself; assay: SAXS; AviTag-ViaA-His at 3 mg/mL, 25 mM HEPES pH 7.5, 300 mM NaCl, 10 mM MgCl2, 10 % glycerol, 20 °C; MW by SAXSMoW and ScÅtter
[4] = biological target: the molecule itself; assay: SEC-MALS; Superdex 200 increase 10/300 GL, 4 °C, 25 mM HEPES pH 7.5, 300 mM NaCl, 10 mM MgCl2, 10 % glycerol; AviTag-ViaA-His 80 µL at 3 mg/mL, His-NTV-AviTag 80 µL at 2 mg/mL
[5] = biological target: T1, C-terminally His-tagged RavA; assay: BLI; Supplementary Fig. 1: biotinylated His-NTV-AviTag or ViaA immobilised on streptavidin biosensors, RavA or RavAΔLARA in solution; HBS kinetics buffer, 293 K; the methods say 1 mM ADP was added with RavA or RavAΔLARA; settings: both partners purified

Kd [1]: ~2.2 µM | Kd [2]: 11 µM
B1: His-ViaA-AviTag (natural protein, E. coli, UniProt P0ADN0 1-483, looked up)
chain: MLTLDTLNVMLAVSEEGLIEEMIIALLASPQLAVFFEKFPRLKAAITDDVPRWREALRSRLKDARVPPELTEEVMCYQQSQLLSTPQFIVQLPQILDLLHRLNSPWAEQARQLVDANSTITSALHTLFLQRWRLSLIVQATTLNQQLLEEEREQLLSEVQERMTLSGQLEPILADNNTAAGRLWDMSAGQLKRGDYQLIVKYGEFLNEQPELKRLAEQLGRSREAKSIPRNDAQMETFRTMVREPATVPEQVDGLQQSDDILRLLPPELATLGITELEYEFYRRLVEKQLLTYRLHGESWREKVIERPVVHKDYDEQPRGPFIVCVDTSGSMGGFNEQCAKAFCLALMRIALAENRRCYIMLFSTEIVRYELSGPQGIEQAIRFLSQQFRGGTDLASCFRAIMERLQSREWFDADAVVISDFIAQRLPDDVTSKVKELQRVHQHRFHAVAMSAHGKPGIMRIFDHIWRFDTGMRSRLLRRWRR
modifications: biotinylated for the BLI binding studies (50 μM D-biotin added to the LB medium during expression)
notes: ViaA, E. coli, residues 1-483, cloned in the p11-Toronto1 vector; also called C-terminally AviTagged ViaA; source: E. coli BL21 (DE3), purified (NiNTA IMAC, desalting, SEC); not shown: His6, N-terminal, kept

Kd [1]: ~2.2 µM | Kd [2]: 18.9 µM
B2: AviTag-ViaA-His (natural protein, E. coli, UniProt P0ADN0 1-483, looked up)
chain: B1 chain
modifications: biotinylated for the BLI binding studies (50 μM D-biotin added to the LB medium during expression)
notes: ViaA, E. coli K-12 MG1655, VWA domain protein, residues 1-483 (NTV 1-319, CTV/VWA domain 320-483), cloned in pET22b; Dimer by SEC-MALLS and SAXS; Theoretical MW of the construct is 60.4 kDa; also called AVI-ViaA-HIS; N-terminally AviTagged ViaA; source: E. coli BL21 (DE3), purified (NiNTA IMAC, desalting, SEC); not shown: AviTag, N-terminal, kept; His tag, C-terminal, kept
stoichiometry N [3]: 2 | stoichiometry N [4]: ~2

binding result [5]: binds
B3: His-NTV-AviTag (domain or fragment, E. coli, UniProt P0ADN0 1-319, looked up)
chain: MLTLDTLNVMLAVSEEGLIEEMIIALLASPQLAVFFEKFPRLKAAITDDVPRWREALRSRLKDARVPPELTEEVMCYQQSQLLSTPQFIVQLPQILDLLHRLNSPWAEQARQLVDANSTITSALHTLFLQRWRLSLIVQATTLNQQLLEEEREQLLSEVQERMTLSGQLEPILADNNTAAGRLWDMSAGQLKRGDYQLIVKYGEFLNEQPELKRLAEQLGRSREAKSIPRNDAQMETFRTMVREPATVPEQVDGLQQSDDILRLLPPELATLGITELEYEFYRRLVEKQLLTYRLHGESWREKVIERPVVHKDYDEQPR
modifications: biotinylated for the BLI binding studies (50 μM D-biotin added to the LB medium during expression)
notes: ViaA, E. coli, N-terminal domain (NTV), residues 1-319; also called N-Terminal domain of ViaA; source: E. coli, expressed and purified as the ViaA constructs (NiNTA IMAC, desalting, SEC)
